Measurements: US20250312452A1 (BRISTAR IMMUNOTECH, published 2025)

Assays:
[1] = biological target: T1, Human Claudin18.2 His tag protein (human, UniProt P56856-2 1-261, limits assumed); assay: BLI (Octet), antibody on Protein A biosensor
T1 construct: also called Claudin18.2 protein; not shown: His tag
T1 sequence (looked up): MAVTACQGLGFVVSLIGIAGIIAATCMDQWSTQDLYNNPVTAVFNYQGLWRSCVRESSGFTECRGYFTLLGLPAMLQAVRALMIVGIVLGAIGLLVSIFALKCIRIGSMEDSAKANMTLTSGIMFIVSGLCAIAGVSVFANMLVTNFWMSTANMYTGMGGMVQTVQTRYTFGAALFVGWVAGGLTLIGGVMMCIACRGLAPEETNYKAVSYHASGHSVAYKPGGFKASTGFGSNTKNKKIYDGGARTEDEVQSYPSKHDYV
Method: The affinity of Claudin18.2 nanobodies was determined. The affinity of the antibodies was measured using the Fortebio Octet® detection instrument based on the biolayer interferometry (BLI) technique.
After the 5 antibodies were immobilized on the Protein A biosensor, the antibodies could bind to the Human Claudin18.2 His tag protein. The measured affinity was calculated using Data Analysis 11 software of the Octet RED96e (ForteBio). The affinities (KD values) of antibody NCLD04 and antibody NCLD31 for the Claudin18.2 protein are both favorable.

[2] = biological target: human Claudin18.2 expressed on cells (human) (UniProt P56856); assay: flow cytometry on SNU1-hClaudin18.2 cells, APC anti-human IgG Fc secondary antibody
[3] = biological target: human Claudin18.2 expressed on cells (human) (UniProt P56856); assay: flow cytometry on SNU1-hClaudin18.2 cells
[4] = biological target: T2, Claudin18.2 protein (UniProt P56856-2 1-261, limits assumed); assay: flow cytometry of STAR-T cells stained with Claudin18.2 protein
T2 sequence (looked up): T1 sequence (looked up)
Description: The above-mentioned vectors were used to package lentiviruses and infect T cells. After one week of culture, the expression levels of STAR and Claudin18.2 on the cells were detected by flow cytometry.
Specifically, the expression of the Claudin18.2 antibody in the STAR structure on the cell membrane was detected by staining with the Claudin18.2 Protein antibody, and the positive rate of STAR vector infection was detected by mTCRβ. […] The protein binding of NCR8020-NCLD04α-STAR and NCLD04 STAR is relatively good, exceeding 55%. Both MND-NCLD04β-NCR802a STAR-mL15 and MND-NCR8020-NCLD04α STAR-mL15 can be successfully expressed on the membrane.

[5] = biological target: T3, MSLN (UniProt Q13421 296-580, limits assumed); assay: BLI affinity detection
T3 construct: also called mesothelin
T3 sequence (Q13421 other isoform, or with tags, fused parts or gaps limits assumed): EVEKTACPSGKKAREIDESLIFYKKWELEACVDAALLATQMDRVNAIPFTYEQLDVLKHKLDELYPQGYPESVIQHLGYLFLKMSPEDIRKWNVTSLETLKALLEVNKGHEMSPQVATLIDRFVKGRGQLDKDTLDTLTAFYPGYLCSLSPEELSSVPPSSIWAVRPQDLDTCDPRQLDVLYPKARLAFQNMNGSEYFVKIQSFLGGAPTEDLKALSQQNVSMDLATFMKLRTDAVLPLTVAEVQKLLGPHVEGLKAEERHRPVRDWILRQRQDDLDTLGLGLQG

B1: NCLD14 (VHH-IgG1 Fc) (Fc fusion)
chain: DVQLQESGGGLVQPGGSLRLSCATSGFTFSTYNMGWFRQAPGKEREFVGSIKWSASTTYYADSVKGRFTISRDNAKNTVYLQMNSLKPEDTAIYYCAGSPHIALGTRTEMYPYWGQGTQVTVSS
notes: Tested as VHH-IgG1 Fc; also called antibody NCLD14; not shown: IgG1 Fc fused to the VHH
With B1 the Kd [1] was 72.6 nM, the koff [1] was 0.00456 s⁻¹ and the kon [1] was 62900 M⁻¹ s⁻¹. For the same binder, the EC50 (read off the curve) [2] was 3 nM and the EC50 [3] was 21 nM.

B2: NCLD04-STAR (NCLD04β-STAR-a(G4S)3OX40(gh)) (other)
chain 1: DVQLQESGGGLVQPGGSLRLSCTASGLTFNDYAVSWLRQAPGKEREFVATIRGSGGVTNYGASAEGRFIISRENAENTVYLQMNSLKSEDTAVYYCNARPLFGWSEEYWGQGTQVTVSSEDLRNVTPPKVSLFEPSKAEIANKQKATLVCLARGFFPDHVELSWWVNGKEVHSGVCTDPQAYKESNYSYCLSSRLRVSATFWHNPRNHFRCQVQFHGLSEEDKWPEGSPKPVTQNISAEAWGRADCGITSASYQQGVLSATILYEILLGKATLYAVLVSTLVVMAMVKRKNS
chain 2: DIQNPEPAVYQLKDPRSQDSTLCLFTDFDSQINVPKTMESGTFITDKCVLDMKAMDSKSNGAIAWSNQTSFTCQDIFKETNATYPSSDVPCDATLTEKSFETDMNLNFQNLLVIVLRILLLKVAGFNLLMTLRLWGGGGSGGGGSGGGGSRRDQRLPPDAHKPPGGGSFRTPIQEEQADAHSTLAKI
notes: Synthetic T-cell receptor and antigen receptor on T cells; NCLD04 VHH on the beta constant region; also called NCLD04-STAR-T
For B2, the “protein binding (percent of cells)” value [4] was over 55%.

B3: NM5 (VHH)
VHH: DVQLQESGGGLVQAGGSLRLSCVGAGVSFSPYGIGWWRQAQGNQREWVASIYRSGSTNYEDFAKDRFTISRDNTKNTAYLQMNSLKPEDTAVYYCQILGTSYRGQGTQVTVSS
notes: also called nanobody NM5; NM5 antibody
In the case of B3, the Kd [5] is reported as 11.4 nM.
